The target of the assay is IL-7 receptor (IL-7R), heterodimer of IL-7R alpha (CD127) and common gamma chain (CD132), on primary human T cells (human) (UniProt P16871). Briefly: cell-based or functional assay.
Sequence of IL-7 receptor (IL-7R), heterodimer of IL-7R alpha (CD127) and common gamma chain (CD132), on primary human T cells (human) (P16871 21-459, chain 1 of 2): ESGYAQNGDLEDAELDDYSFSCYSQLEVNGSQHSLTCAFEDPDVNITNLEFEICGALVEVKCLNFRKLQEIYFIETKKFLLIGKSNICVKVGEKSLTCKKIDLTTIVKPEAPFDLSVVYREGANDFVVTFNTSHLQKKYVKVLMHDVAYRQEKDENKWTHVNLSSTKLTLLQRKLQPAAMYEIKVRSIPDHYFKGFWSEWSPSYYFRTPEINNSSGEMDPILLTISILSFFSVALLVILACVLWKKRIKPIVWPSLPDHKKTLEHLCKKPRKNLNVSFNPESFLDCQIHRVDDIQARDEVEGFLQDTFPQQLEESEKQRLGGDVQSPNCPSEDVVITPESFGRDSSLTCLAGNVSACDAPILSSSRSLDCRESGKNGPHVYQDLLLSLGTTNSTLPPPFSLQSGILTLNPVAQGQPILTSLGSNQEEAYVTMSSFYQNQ
Sequence of IL-7 receptor (IL-7R), heterodimer of IL-7R alpha (CD127) and common gamma chain (CD132), on primary human T cells (human) (P31785 23-369, chain 2 of 2, further chain): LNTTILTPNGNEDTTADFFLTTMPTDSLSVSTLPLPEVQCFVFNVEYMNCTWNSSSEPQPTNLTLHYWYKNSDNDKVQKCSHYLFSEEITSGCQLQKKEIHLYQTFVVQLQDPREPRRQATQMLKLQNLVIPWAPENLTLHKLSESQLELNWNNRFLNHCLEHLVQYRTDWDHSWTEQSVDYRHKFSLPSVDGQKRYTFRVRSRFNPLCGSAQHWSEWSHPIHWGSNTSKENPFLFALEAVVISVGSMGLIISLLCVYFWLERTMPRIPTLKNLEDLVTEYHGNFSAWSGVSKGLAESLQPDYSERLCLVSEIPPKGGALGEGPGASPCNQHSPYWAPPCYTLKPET

In the case of “Synthetic IL-7 of SEQ ID NO: 3 (M17Nle, M27Nle, N36Hse, M54Nle, M69Nle, D76Hse, E114Hse, M147Nle) (from UniProt P13232 26-177) (ligand)”, the Avg EC50 (nM) (human pSTAT5), CD4 Memory was 0.005 nM; the Avg EC50 (nM) (human pSTAT5), CD4 Naive came to 0.005 nM; the Avg EC50 (nM) (human pSTAT5), CD4 Treg worked out at 0.015 nM; the Avg EC50 (nM) (human pSTAT5), CD8 Memory came to 0.006 nM. The substance also returned an Avg EC50 (nM) (human pSTAT5), CD8 Naive of 0.006 nM.

Values taken from patent publication US20240158537A1.
